Measurements reported in publication PMC7496778, “Characterizing the original anti‐C5 function‐blocking antibody, BB5.1, for species specificity, mode of action and interactions with C5” (Immunology, 2020).

Columns and labels:
[1] = molecular target: T1, human complement component 5 (C5) (Homo sapiens, UniProt P01031); assay: ELISA; direct ELISA; plates coated with mouse or human C5 (0.5 µg/ml, bicarbonate buffer pH 9.6); BB5.1 intact mAb 5-0 µg/ml or Fab 20-0 µg/ml in 0.2% BSA-PBS, 1 hr at 37°; HRP-labelled secondary antibody; details: both partners purified
T1 construct: complement C5 beta chain, human, cut from the C5 precursor; complement C5 alpha chain, human, cut from the C5 precursor; also called human C5; source: purified in-house

[2] = molecular target: T2, mouse complement component 5 (C5) (Mus musculus, strain , UniProt P06684); assay: SPR; Biacore T200; BB5.1 immobilised on CM5 chip by amine coupling (~200 RU); mouse C5 flowed at 52-4 nM in HBS-EP (10 mM HEPES, 150 mM NaCl, 0.05% surfactant P20), 30 µl/min, 25°; Langmuir 1:1 binding model; details: both partners purified
T2 construct: complement C5 beta chain (80 000 MW), mouse, cut from the C5 precursor; complement C5 alpha chain (115 000 MW), mouse, cut from the C5 precursor; also called mouse C5; intact C5; source: purified in-house

T1 sequence (P01031 whole entry, looked up): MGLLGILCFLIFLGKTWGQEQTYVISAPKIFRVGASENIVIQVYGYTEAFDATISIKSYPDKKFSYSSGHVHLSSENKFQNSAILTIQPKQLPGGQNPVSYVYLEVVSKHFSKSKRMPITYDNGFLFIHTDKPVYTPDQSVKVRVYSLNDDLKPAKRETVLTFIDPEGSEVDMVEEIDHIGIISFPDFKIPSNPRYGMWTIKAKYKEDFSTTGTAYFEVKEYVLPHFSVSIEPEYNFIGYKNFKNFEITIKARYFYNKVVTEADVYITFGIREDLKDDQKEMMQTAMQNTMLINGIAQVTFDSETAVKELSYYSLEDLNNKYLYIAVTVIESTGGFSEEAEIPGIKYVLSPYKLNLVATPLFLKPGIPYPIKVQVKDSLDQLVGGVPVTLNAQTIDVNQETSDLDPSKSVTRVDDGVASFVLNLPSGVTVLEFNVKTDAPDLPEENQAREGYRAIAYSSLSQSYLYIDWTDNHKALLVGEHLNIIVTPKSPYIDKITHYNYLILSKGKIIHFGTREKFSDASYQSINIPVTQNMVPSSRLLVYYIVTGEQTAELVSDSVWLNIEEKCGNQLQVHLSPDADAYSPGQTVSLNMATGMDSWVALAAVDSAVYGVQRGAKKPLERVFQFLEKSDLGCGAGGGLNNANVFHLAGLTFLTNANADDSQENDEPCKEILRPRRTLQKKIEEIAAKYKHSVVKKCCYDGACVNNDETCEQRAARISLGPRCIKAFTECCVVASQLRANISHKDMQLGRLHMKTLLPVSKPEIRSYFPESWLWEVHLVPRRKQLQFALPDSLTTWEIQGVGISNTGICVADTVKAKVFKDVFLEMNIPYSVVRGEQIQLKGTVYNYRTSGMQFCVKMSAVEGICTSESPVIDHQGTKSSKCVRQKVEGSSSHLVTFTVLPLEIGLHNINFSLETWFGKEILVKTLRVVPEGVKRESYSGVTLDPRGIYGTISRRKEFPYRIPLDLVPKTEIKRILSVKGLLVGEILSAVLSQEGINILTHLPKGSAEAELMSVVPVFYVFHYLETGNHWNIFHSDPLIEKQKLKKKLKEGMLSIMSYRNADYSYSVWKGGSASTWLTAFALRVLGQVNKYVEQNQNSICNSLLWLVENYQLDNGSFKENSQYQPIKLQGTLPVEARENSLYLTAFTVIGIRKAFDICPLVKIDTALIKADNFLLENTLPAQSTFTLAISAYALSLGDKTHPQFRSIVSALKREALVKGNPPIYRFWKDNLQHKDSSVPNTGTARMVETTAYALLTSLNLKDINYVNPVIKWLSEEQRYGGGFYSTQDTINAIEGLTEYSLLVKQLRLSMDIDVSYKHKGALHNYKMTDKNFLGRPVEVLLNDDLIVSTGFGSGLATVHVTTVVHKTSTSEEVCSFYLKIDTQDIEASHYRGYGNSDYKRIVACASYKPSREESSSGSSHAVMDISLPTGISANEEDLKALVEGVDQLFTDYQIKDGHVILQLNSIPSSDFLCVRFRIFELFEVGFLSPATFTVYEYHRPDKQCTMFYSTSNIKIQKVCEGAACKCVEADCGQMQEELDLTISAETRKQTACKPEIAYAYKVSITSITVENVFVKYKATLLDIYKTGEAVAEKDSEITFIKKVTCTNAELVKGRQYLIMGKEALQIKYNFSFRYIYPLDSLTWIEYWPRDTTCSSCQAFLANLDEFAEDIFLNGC

binding result [1] | Kd [2] [nM] | koff [2] [s⁻¹] | Binder
no binding (tested: 5 µg/ml) | 8.1 | 0.0013 | BB5.1 anti-C5 monoclonal antibody (intact mAb) (antibody, V domains shown, full variable heavy domain; full variable light domain; raised in C5-deficient mice; also called BB5.1 mAb; full-length BB5.1; source: BB5.1 hybridoma (re-cloned), purified on HiTrap Protein G sepharose) VH: QVQLQQPGAELVRPGTSVKLSCKASGYTFTSSWMHWVKQRPGQGLEWIGVIDPSDSYTNYNQKFKGKATLTVDTSSSTAYMQLSSLTSEDSAVYYCARGGGSSYNRYFDVWGTGTTVTVSS VL: NIMMTQSPSSLAVSAGEKVTMSCKSSQSVLYSSNQKNYLAWYQQKPGQSPKLLIYWASTRESGVPDRFTGSGSGTDFTLTISSVQAEDLAVYYCHQYLSSRTFGGGTKLEIK
no binding (tested: 20 µg/ml) |  |  | BB5.1 Fab fragments (Fab, V domains shown, as the VH of m1; as the VL of m1; Fab of a mouse IgG1, kappa antibody; also called BB5.1-derived Fab fragment; source: immobilized ficin digestion of purified BB5.1 mAb; Fc-containing proteins removed on Protein A or G column) VH: QVQLQQPGAELVRPGTSVKLSCKASGYTFTSSWMHWVKQRPGQGLEWIGVIDPSDSYTNYNQKFKGKATLTVDTSSSTAYMQLSSLTSEDSAVYYCARGGGSSYNRYFDVWGTGTTVTVSS VL: NIMMTQSPSSLAVSAGEKVTMSCKSSQSVLYSSNQKNYLAWYQQKPGQSPKLLIYWASTRESGVPDRFTGSGSGTDFTLTISSVQAEDLAVYYCHQYLSSRTFGGGTKLEIK
